Data: article PMC8034659

Columns and labels:
Assay in all cases: SPR
[1] = target: T1, TrfA A171T (plasmid RK2, UniProt P07676 98-382, A171T;G254D;S267L)
T1 sequence: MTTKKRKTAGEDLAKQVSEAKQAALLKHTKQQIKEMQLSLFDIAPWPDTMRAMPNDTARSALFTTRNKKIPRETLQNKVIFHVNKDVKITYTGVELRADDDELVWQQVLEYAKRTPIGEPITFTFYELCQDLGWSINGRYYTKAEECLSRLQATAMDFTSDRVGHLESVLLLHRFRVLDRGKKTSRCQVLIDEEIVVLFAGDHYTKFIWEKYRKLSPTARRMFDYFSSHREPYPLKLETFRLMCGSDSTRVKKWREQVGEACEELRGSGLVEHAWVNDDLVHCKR

[2] = target: T2, TrfA wt (G254D/S267L, 33 kDa) (plasmid RK2, UniProt P07676 98-382, G254D;S267L)
T2 sequence: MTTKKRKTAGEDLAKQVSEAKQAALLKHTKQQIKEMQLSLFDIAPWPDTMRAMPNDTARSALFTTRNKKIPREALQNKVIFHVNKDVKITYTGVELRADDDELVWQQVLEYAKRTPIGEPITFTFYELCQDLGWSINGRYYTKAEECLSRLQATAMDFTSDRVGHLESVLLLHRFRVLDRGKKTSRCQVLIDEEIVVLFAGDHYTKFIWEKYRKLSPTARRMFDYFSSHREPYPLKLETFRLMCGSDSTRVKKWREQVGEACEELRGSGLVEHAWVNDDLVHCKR

[3] = target: T3, TrfA P151S/E361K (plasmid RK2, UniProt P07676 98-382, P151S;G254D;S267L;E361K)
T3 sequence: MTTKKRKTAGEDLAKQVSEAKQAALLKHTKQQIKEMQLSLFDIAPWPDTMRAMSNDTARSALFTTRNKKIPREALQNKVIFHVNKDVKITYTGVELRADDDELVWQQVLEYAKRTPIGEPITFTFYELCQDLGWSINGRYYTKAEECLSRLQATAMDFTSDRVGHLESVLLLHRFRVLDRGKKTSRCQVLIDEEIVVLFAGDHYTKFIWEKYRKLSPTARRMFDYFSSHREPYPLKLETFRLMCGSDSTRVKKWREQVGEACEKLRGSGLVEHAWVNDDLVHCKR

[4] = target: T4, TrfA R347E (plasmid RK2, UniProt P07676 98-382, G254D;S267L;R347E)
T4 sequence: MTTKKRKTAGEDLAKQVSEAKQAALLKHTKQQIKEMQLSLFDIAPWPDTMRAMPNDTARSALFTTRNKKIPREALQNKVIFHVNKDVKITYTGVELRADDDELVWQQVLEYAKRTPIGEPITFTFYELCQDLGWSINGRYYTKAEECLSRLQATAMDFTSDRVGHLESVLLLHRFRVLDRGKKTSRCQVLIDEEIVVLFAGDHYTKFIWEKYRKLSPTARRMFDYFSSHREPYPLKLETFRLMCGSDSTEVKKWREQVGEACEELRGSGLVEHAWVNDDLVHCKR

B1: five RK2 iterons (ItT/ItB) (dsDNA)
DNA 1: CCTGCGGTATTGACACTTGAGGGGCGCGACTACTGACAGATGAGGGGCGCGATCCTTGACACTTGAGGGGCAGAGTGATGACAGATGAGGGGCGCACCTATTGACATTTGAGGGGCTGTCCACAGGCAG
DNA 2: CTGCCTGTGGACAGCCCCTCAAATGTCAATAGGTGCGCCCCTCATCTGTCATCACTCTGCCCCTCAAGTGTCAAGGATCGCGCCCCTCATCTGTCAGTAGTCGCGCCCCTCAAGTGTCAATACCGCAGG
B1: binds [1]; binds [2]; binds [3]. B1: no binding [4].
